The data set concerns the molecule itself. The experiment in a line: FRET or BRET; FC-FRET: flow cytometry, sensitized emission (three-cube N_FRET, apparent FRET efficiency) in live transiently cotransfected HEK293T cells suspended in PBS; donor EGFP, acceptor mCherry; population means and dependence on expression level compared with unlinked mCh + eG. (In general: BRET reads energy transfer from a luciferase to a nearby fluorophore.)

Results on two proteins are retold here after PMC9050680, “Interaction of human CRX and NRL in live HEK293T cells measured using fluorescence resonance energy transfer (FRET)” (Scientific Reports, 2022).

B1: human NRL with mCherry or EGFP fused to the N-terminus (near the activation domain) (natural protein)
chain: not shown
notes: NRL, human, neural retina-specific leucine zipper protein; coding region cloned in derivatives of pEGFP-N1 with an NLS and a linker to EGFP or mCherry; mNRL (mCherry, acceptor) and eNRL (EGFP, donor) differ only in the fluorophore and are written as one molecule; The discussion speaks of (Gly)5 linkers between the fluorophores and NRL; also called mNRL; eNRL; source: HEK293T, transiently …
Regarding B1, the “N_FRET (mean apparent FRET efficiency)” value came to 2.5%.

B2: human CRX with mCherry or EGFP fused to the N-terminus (near the homeodomain) (natural protein)
chain: not shown
notes: CRX, human, cone-rod homeobox protein; coding region cloned in derivatives of pEGFP-N1 with an NLS and a linker to EGFP or mCherry; mCRX (mCherry, acceptor) and eCRX (EGFP, donor) differ only in the fluorophore and are written as one molecule; mCRX + eCRX is a row of m1 with itself; also called mCRX; eCRX; source: HEK293T, transiently transfected, in live cells (fixed cells for acceptor …)
Turning to B2, the “N_FRET (mean apparent FRET efficiency)” value was 3.3%.
